The text below walks through data of paper PMC2873526.

The target in one test is histone H3 (UniProt P68432). The experiment in a line: fluorescence spectroscopy (acrylodan-labelled PfNapS titrated with histone). As to conditions: read off a plot.
Test [1] concerns the target PfNapS residues 29-221 (crystallised construct) (Plasmodium falciparum). Kind of test: crystal structure; hanging drop vapour diffusion at 20°C, 0.2 M di-ammonium tartrate, 20% PEG 3350; space group P212121, three dimers in the asymmetric unit; Se-SAD at 3.2 Å, native data to 2.8 Å.

Consider “PfNapS labelled with acrylodan (PfNapS^dye) C47A”, for which the response with histone H3 (Histone H3 5 microgram) amounted to 0.55; with histone H3 (Histone H3 10 microgram), 0.56; with histone H3 (Histone H3 15 microgram), 0.6; with histone H3 (Histone H3 20 microgram), 0.61; with histone H3 (Histone H3 25 microgram) it was 0.64; in the test with histone H3 (Histone H3 30 microgram), 0.63.

In test [1], “PfNapS residues 29-221 (crystallised construct) (domain or fragment)” displayed a stoichiometry N of 2.
